The numbers were not newly measured in article PMC7419686, which cites them from elsewhere.

The target in the series is MDMX (Homo sapiens) (UniProt O15151).
MDMX (Homo sapiens), sequence (O15151 whole entry): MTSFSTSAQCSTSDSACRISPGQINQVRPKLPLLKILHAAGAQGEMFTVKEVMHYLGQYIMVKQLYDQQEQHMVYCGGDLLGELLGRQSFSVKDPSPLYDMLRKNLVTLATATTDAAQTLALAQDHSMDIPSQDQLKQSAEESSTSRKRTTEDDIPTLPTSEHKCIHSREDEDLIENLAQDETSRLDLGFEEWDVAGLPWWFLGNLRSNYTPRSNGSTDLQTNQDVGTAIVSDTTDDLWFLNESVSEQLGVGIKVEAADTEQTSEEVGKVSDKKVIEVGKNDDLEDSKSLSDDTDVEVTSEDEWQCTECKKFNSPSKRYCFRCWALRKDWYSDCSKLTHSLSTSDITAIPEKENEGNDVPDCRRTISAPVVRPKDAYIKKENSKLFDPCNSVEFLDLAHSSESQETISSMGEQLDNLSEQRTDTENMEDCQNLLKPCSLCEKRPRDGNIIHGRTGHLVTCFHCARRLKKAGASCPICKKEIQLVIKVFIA

One may read the Kd as the equilibrium constant for the complex coming apart. For the substance SAH-p53-8 (from UniProt P04637), the Kd is 2.3 nM.
